Results taken from paper PMC10755749.

How the values were obtained:
[1] = system: MPXV A29 protein (mpox virus); assay: SPR
[2] = system: MPXV A29 protein;anti-A29 IgG antibody (mpox virus;); assay: single-molecule nanopore; settings: 5'-phosphate on aptamer probe, ligated into carrier
[3] = system: MPXV A29 protein;anti-A29 IgG antibody (mpox virus;); assay: single-molecule nanopore; settings: 5'-phosphate on aptamer probe, ligated into carrier; remark: listed apart in the source
[4] = system: anti-A29 IgG antibody; assay: single-molecule nanopore; settings: 5'-phosphate on aptamer probe, ligated into carrier
[5] = system: VZV protein;anti-A29 IgG antibody (Varicella zoster virus;); assay: single-molecule nanopore; settings: 5'-phosphate on aptamer probe, ligated into carrier
[6] = system: VACV A27 protein;anti-A29 IgG antibody (Vaccinia virus (Copenhagen?);); assay: single-molecule nanopore; settings: 5'-phosphate on aptamer probe, ligated into carrier
[7] = system: MPXV A29 protein;anti-A29 IgG antibody (mpox virus;); assay: single-molecule nanopore, Hill fit; settings: 5'-phosphate on aptamer probe, ligated into carrier

Sequence | Kd [1] | other results
AGCACTCCACGCATAACCGGTGGGCGGGGGATGTGGGAAGGTATCGGGGTTGCGTTATGCGTGCTACCGT [HIM-A29-5] | 8.49 nM | 
AGCACTCCACGCATAACGGAGCCGGGGGGCCTTGGGGGATGCAGCTTCGAAGTGTTATGCGTGCTACCGT [HIM-A29-2] | 35.4 nM | 
AGCACTCCACGCATAACGGGGGAGGAGGAGGATGTTATTGGGTGGGCGGGTTTGTTATGCGTGCTACCGT [HIM-A29-4] | 18.6 nM | 
AGCACTCCACGCATAACGGGGGAGGAGGAGGTTCACTTTGGGCGGGTGGGAATGTTATGCGTGCTACCGT [HIM-A29-3] | 12.4 nM | 
AGCACTCCACGCATAACGGGGTCTGGTGGTCTGGCTGGTTTGGGGGTTTGGTCGTTATGCGTGCTACCGT [HIM-A29-1] | 10.8 nM | 
CACGCATAACGTCTTGCGGGGCGGCGGGTTGAGAGGATGTCGGGTGGTTATGCGTG [HIM-A29-6] | < 10 nM | 
CACTGCGCCGGTATCGATATATTTTTTCACGCATAACGTCTTGCGGGGCGGCGGGTTGAGAGGATGTCGGGTGGTTATGCGTG / AAACCACTCAAGTTTGCCAACCAAATGTATATCGATACCGGCGCAGTG [9.1 kbp DNA molecular probe with HIM-A29-6] |  | binding signal (% events with subpeak) [2]: 3.98; binding signal (% events with subpeak) [3]: 3.98; binding signal (% events with subpeak) [4]: 0.01; binding signal (% events with subpeak) [5]: 0; binding signal (% events with subpeak) [6]: 0.01; Kd [7]: 0.0823 nM
